Biological target: T1, IB1 280-714 (Rattus, UniProt Q9R237 SEQ:280-714)
T1 sequence: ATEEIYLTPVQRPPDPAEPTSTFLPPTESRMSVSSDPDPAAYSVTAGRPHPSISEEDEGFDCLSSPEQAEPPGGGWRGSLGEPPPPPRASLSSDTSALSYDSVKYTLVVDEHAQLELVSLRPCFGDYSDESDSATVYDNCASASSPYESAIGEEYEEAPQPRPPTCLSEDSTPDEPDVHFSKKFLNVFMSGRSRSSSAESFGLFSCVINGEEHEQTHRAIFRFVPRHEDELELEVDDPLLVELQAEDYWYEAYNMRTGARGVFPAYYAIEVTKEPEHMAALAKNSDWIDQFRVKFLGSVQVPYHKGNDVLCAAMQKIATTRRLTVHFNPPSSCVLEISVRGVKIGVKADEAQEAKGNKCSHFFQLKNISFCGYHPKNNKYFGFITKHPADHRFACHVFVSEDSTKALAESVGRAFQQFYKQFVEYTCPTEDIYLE
Experiment: SouthWestern
Details: tags: bacterially produced; label: 32P

B1: GTII (dsDNA)
DNA 1: GTAAAGGGTGTATTGATTGGATTACCATCAATACTCAGCTTCT
DNA 2: AGAAGCTGAGTATTGATGGTAATCCAATCAATACACCCTTTAC
B1: binds.
